Reference: US20260234247A1
Changes are numbered by the printed parent chain.

B1: LK-RB1-35 (antibody, human IgG4 S228P, kappa, V domains shown)
VH: DVQLQESGPGLEKPSQSLSLTCSVTGYSITRGYQWNWIRQFPGNKLEWMGYISYDGSNNYNPSLKNRISITRDASKNQFFLKLNSVTTEDTATYYCARRSYNSIDYWGQGTTLTVSS
VL: DIVLTQSPATLSVTPGDSVSLSCRASQSISSNLHWYQQKSHESPRLLIKYASQSISGIPSRFSGSGSGTDFTLSINSVETEDFGMYFCQQSNSWPLTFGAGTKLELKR
B2: LK-RB1-36 (antibody, human IgG4 S228P, kappa, V domains shown)
VH: B1 VH with T71I, A74T
VL: B1 VL with S31N
B3: LK-RB1-38 (antibody, human IgG4 S228P, kappa, V domains shown)
VH: DVQLQESGPGLVQPSQSLSLTCSVTGYSITSGYQWNWIRQLPGNKLEWMAYISFDGSNNYNPSLKNRISITRDTSKNQFFLKLKSVTTEDTATYYCARRDYDGVAYWGQGTLVTVSA
VL: B1 VL with D1E, S18R, S28N, S31N, N32Y, E42G, L47I
B4: LK-RB2-8 (antibody, human IgG4 S228P, kappa, V domains shown)
VH: QIQLVQSGPELKKPGETVKISCKASGYSFASYGMGWVKQAPGKGLKWLGWINTHSGVPTYADDFKGRFAFSLETSASTAYLQINNLKNEDTATYFCAHYGRPWFPYWGQGTLVTVSA
VL: DIQMTQSPASLSASVGETVTITCRTSENIYSYLAWYQQKQGKSPQLLVYNAKSLAEGVPSRFSGSGSGTQFSLRINSLQPEDFGTYYCQQHYETPLTFGAGTKLELKR
B5: LK-RB2-16 (antibody, human IgG4 S228P, kappa, V domains shown)
VH: B4 VH with S28T, A30T, S31T, G42E, L48M, H54N, V57A, A61G, P105A
VL: B4 VL with T25A, Q37H, K42E, S53T, R74K, T85S, Q90H, E93N, T94I
B6: LK-RB1-51 (antibody, human IgG4 S228P, kappa, V domains shown)
VH: QVQIQQSGAELVKPGASVKLSCKASGYTFTEFPIHWIKQRSGQGLEWIGWFYPGSDNMNYNEKFKDKATLTADKSSSTVYMELSRLTSEDSAVYFCARHENAYFYAMDYWGQGTSVTVSS
VL: ENVLTQSPAIMSASLGEKVTMSCRASSSVNYMYWYQQKSDASPKIWIYYTSNLAPGVPARFSGSGSGNSYSLTISSMEGEDAATYYCQQFTSSPFTFGTGTKLEIKR
B7: LK-RB1-34 (antibody, human IgG4 S228P, kappa, V domains shown)
VH: QVQLQQSGAELVKPGASVKLSCKASGYTFTEYTIHWVKQRSGQGLEWIGWFYPGSDSIKYNEKFKDKATLTADKSSSTVYMELSRLTSEDSAVYFCSRHEGPYFTSQYYFDYWGQGTTLTVSS
VL: DILLTQSPAILSVSPGERVSFSCRASRYIGTSIHWYQQRTNGSPRLLIKYASESISGIPSRFSGSGSGTDFTLSINSVESEDIADYYCQQSNTWPLTFGAGTKLELKR
B8: LK-RB1-45 (antibody, human IgG4 S228P, kappa, V domains shown)
VH: QVQLQQSGTELARPGASVKLSCKASGYTFTNFWMHWIKQRPGQGLEWIGYVNPTSDYTKYNQKFKDKATLTADKSSSTAYMQLNSLTYEDSAVYYCTRSSLYDTNYVFDSWGQGTTLTVSS
VL: B7 VL with R27Q, Y28S, T31R, S65G, N76S, S77N, T93N, L96F, A100S, L106I
B9: LK-RB1-37 (antibody, human IgG4 S228P, kappa, V domains shown)
VH: QVQLQQPGAELVKPGASVKLSCKASGYTFTSYWMHWVKQRPGRGPEWIGRIDPNSGYARYNEKFKNKATLTADKPSSTADMHLSSLTSEDSAVYYCTRSFITTAEWFFDVWGTGTTVTVSS
VL: B7 VL with R27Q, Y28S, T40R, A51T, T93S, L96H, A100G
B10: LK-RB1-50 (antibody, human IgG4 S228P, kappa, V domains shown)
VH: QVQLKQSGPGLVQPSQSLSITCTVSGFSLTSYGVHWVRQSPGKGLEWLGVIWRGGNTDYNAPFVSRLSITKDNSQSQVFFKMNSLEADDTAIYYCAKNSLDVYSSWYFDVWGTGTTVTVSS
VL: QIVLSQSPAILSAFPGEKVTMTCRASSSVSFMHWYQQKPGSSPKPWIYATSNLASGVPARFSGSGSGTSYSLTISRVEAEDAATYYCQQWSSNPLTFGAGTKLELKR
B11: LK-RB1-39 (antibody, human IgG4 S228P, kappa, V domains shown)
VH: EVQLQQSGAELVRPGASVKLSCTASGFNIKDDYVHWVNQRPEQGLEWIGWIDPENGDTGYASKFQDKATITADTSSNTAYLHLSSLTSEDTAVYYCTTTRWTGSYWGQGTTLTVSS
VL: QIVLTQSPAIMSASPGEKVTITCSASSSVNYMHWFQQKPGSSPKLWIYSTANLASGVPARFSGSGSGTSYSLTISRMEAEDAATYYCQQRSSYPPTWTFGGGTKLEIKR
B12: LK-RB1-44 (antibody, human IgG4 S228P, kappa, V domains shown)
VH: B8 VH with R13K, F32Y, N52H
VL: DILLTQSPAILSVSPGERVSFSCRASQSIGRSIHWFQQRTNGSPSLLIKYASESISGIPSRFSGGGSGTDFTLSISNVESEDIADYYCQQSNNWPFTFGSGTKLEIKR
B13: LK-RB1-42 (antibody, human IgG4 S228P, kappa, V domains shown)
VH: QVQLQQPGAELVKPGTSVKLSCKASGYSFISYWVYWVKQRPGQGLEWIGMIHPNSGSTNFNEKFRYKATLTVDKSSSTAYIQLSSLTSEDSAVYYCGRSDDGYPYHAMDSWGQGTSVTVSS
VL: DIVMTQSQKFMSTSVGDRVSVTCKASQNVGTNVAWYQQKPGQSPKALIYSASYRFSGVPDRFTGSGSGTDFTLTIGNVQSEDLAEYFCHQYKNYPLTFGGGTKLEIKR
B14: LK-RB1-46 (antibody, human IgG4 S228P, kappa, V domains shown)
VH: EVQLQQSGPELVKPGASVKISCKTSGYTFTDYYMNWVKQSHGKSLEWIGDIYPINGDISYNQKFKGKATLTVDKSSSTVYMEIRSLTYEDSAVYYCARLAQTTSGGFDYWGQGTTLTVSS
VL: DIVLTQSPTSLAVSLGQRAIISCKASQSVSFAGTSLMHWYQQKPGQQPKLLIYRASNLKAGVPTRFSGSGSRTDFTLNIHPVEEDDAATYYCQQSREYPMYTFGGGTKLEIKR
B15: LK-RB1-43 (antibody, human IgG4 S228P, kappa, V domains shown)
VH: EFQLQQSGPELMKPGASVKISCKASGYSFTDYNMNWVKQSNGKSLEWIGIIDPNYGTTTYNQKFKGRATLTVDQSSNTAYMQLNSLTSEDSAVYYCAREGRYSWFAYWGQGTLVTVSA
VL: DIQMTQSPGALSVSVGETVTITCRASENINSNLAWYQQKQGKSPQLLVYAATNLADGVPSRFSGSGSGTQYSLKINSLQSEDFGSYHCQHFWGTPFTFGSGTKLEIKR
B16: LK-RB1-59 (antibody, human IgG4 S228P, kappa, V domains shown)
VH: QIQLVQSGPELKKPGETVKISCKASGYTFTTYGMSWVKQAPGKGLKWMGWINTYSGVPTYADDFKGRFAFSLETSASTAYLQINNLKNEDTATYFCARRRIYYGNKGYAMDYWGQGTSVTVSS
VL: B15 VL with G9A, A10S, N30Y, A34V, A50T, Y71F, H87Y, F96W, S100G
B17: LK-RB1-54 (antibody, human IgG4 S228P, kappa, V domains shown)
VH: DVQLQESGPGLVKPSQSLSLTCSVTGYSITSGFYWNWIRQFPGNKLEWMGHISYDGTNNYNPSLKNRISITRDTSKNLFFLKLNSVTTEDTATFHCARGGYGGSYGFDYWGQGTTLTVSS
VL: B6 VL with I45L, A59V, F95W, T99G

Biological target: Rhesus LILRB1 (NP_001035762.2) on CHOK1 cells (rhesus macaque) (UniProt F7H3G7)
Assay: flow cytometry on CHOK1-rhesus LILRB1 (NP_001035762.2) cells

EC50 [nM]	Binder
0.64	B1
0.54	B2
4.97	B3
15.1	B4
18.5	B5
21.4	B6
8.06	B7
96.1	B8
37.7	B9
11.2	B10
0.36	B11
769	B12
59.8	B13
2.71	B14
1.62	B15
40.2	B16

Biological target: Rhesus LILRB1 (NP_001035762.2) on CHOK1 cells (rhesus macaque) (UniProt F7H3G7)
Assay: cell based blocking assay on CHOK1-rhesus LILRB1 (NP_001035762.2) cells; blocked ligand not named

EC50 [nM]	Top Inhibition (%)	Binder
0.87	64.9	B6
1.2	54	B17
5.68	57.8	B10
0.16	73.1	B11
